Data taken from paper PMC8213733, “Subtype-specific collaborative transcription factor networks are promoted by OCT4 in the progression of prostate cancer” (Nature Communications, 2021).

Biological target: T1, Flag-AR (human (cDNA of PC cells, said of the …, UniProt P10275 1-920))
T1 construct: androgen receptor, full length in Flag-tagged pcDNA3.0; also called androgen receptor; source: 293T, transfected, cells treated with 10 nM DHT or vehicle, purified (Flag M2 agarose beads, glycine elution)
T1 sequence (looked up): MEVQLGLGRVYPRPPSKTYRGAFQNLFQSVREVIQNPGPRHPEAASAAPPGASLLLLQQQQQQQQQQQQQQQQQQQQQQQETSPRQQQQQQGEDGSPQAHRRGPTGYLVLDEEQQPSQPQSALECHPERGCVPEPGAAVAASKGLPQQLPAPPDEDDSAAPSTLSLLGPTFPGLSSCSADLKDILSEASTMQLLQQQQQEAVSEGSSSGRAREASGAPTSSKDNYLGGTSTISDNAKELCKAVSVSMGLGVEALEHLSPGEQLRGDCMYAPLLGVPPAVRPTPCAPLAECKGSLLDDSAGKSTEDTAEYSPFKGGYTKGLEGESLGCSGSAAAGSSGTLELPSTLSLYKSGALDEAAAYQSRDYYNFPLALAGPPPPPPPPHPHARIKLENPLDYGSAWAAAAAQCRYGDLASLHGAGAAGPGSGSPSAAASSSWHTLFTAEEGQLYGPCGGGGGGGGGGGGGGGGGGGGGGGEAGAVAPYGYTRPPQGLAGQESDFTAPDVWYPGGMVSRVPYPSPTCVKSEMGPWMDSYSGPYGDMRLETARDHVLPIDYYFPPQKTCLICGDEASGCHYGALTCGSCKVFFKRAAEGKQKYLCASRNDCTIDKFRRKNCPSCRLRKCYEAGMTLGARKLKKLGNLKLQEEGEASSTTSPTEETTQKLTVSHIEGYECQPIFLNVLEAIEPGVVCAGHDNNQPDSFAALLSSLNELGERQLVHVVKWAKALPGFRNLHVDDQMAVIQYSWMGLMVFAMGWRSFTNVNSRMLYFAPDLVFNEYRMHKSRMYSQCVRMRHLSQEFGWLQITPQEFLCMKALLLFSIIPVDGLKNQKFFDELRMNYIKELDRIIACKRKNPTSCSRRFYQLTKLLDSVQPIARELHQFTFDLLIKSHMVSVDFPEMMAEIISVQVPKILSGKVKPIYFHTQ
Experiment: co-IP; in vitro binding assay: purified proteins in 20 mM Tris-HCl pH 7.5, 150 mM NaCl, 0.1% Triton X-100, 1 mM DTT, 4 °C, 5 h; FOXA1 immunoprecipitated, bound proteins by western blot; with or without ribavirin-phosphate
Details: both partners purified

- binding result: binds
B1: Flag-FOXA1 (natural protein, UniProt P55317 1-472, looked up)
chain: MLGTVKMEGHETSDWNSYYADTQEAYSSVPVSNMNSGLGSMNSMNTYMTMNTMTTSGNMTPASFNMSYANPGLGAGLSPGAVAGMPGGSAGAMNSMTAAGVTAMGTALSPSGMGAMGAQQAASMNGLGPYAAAMNPCMSPMAYAPSNLGRSRAGGGGDAKTFKRSYPHAKPPYSYISLITMAIQQAPSKMLTLSEIYQWIMDLFPYYRQNQQRWQNSIRHSLSFNDCFVKVARSPDKPGKGSYWTLHPDSGNMFENGCYLRRQKRFKCEKQPGAGGGGGSGSGGSGAKGGPESRKDPSGASNPSADSPLHRGVHGKTGQLEGAPAPGPAASPQTLDHSGATATGGASELKTPASSTAPPISSGPGALASVPASHPAHGLAPHESQLHLKGDPHYSFNHPFSINNLMSSSEQQHKLDFKAYEQALQYSPYGSTLPASLPLGSASVTTRSPIEPSALEPAYYQGVYSRPVLNTS
notes: FOXA1, full length in Flag-tagged pcDNA3.0; source: 293T, transfected, purified (Flag M2 agarose beads, glycine elution)
